We go through 21 molecules from US20100279930A1 (published 2010).

Numbering of substitutions follows the chain as printed. No end group written: not given here.

Assay [1] addresses T1, human Y4 receptor (human, UniProt P50391 1-375).
T1 construct: whole, on cells; Used as a cell membrane preparation from transfected HEK-293T cells, not as intact cells; also called Human Y Receptor-4
As to the kind of experiment: 125I-PP displacement assay, human Y4 receptor membranes.

For assay [2], the target named is T1, human Y4 receptor. Description: 125I-PP displacement assay, human Y4 receptor membranes; weaker reference compound.

T1 sequence (P50391 whole entry): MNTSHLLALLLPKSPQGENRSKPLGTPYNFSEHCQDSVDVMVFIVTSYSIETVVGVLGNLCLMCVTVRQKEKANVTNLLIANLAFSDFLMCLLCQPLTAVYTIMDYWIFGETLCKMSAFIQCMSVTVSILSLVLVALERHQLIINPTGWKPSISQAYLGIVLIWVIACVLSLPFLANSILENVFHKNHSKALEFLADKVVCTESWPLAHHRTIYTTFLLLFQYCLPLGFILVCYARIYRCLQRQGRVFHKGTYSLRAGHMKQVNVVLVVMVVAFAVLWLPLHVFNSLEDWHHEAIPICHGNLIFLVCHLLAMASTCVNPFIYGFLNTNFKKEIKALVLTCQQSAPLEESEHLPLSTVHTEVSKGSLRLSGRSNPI

B1: compound of SEQ ID NO:62 (code 6659) (peptide)
peptide: APLEPVYPGDNATPEQMAQYAADLRRYINMLTRPHRY
modifications: ends and bridges not checked
notes: Synthetic analogue of human PP; cited for changes at positions 34-36
With B1, in assay [1], the binding result is on record as “binds”.

B2: compound of SEQ ID NO:24 (code 6453) (peptide)
peptide: APLEPVYPGDNATPEQMAQYAADLRRYINMLTRQRY
modifications: ends and bridges not checked
notes: as for B1
B2: the binding result in assay [1] is “binds”.

B3: compound of SEQ ID NO:261 (code 4055715) (peptide)
peptide: B2 peptide with M30F, Q34P
modifications: ends and bridges not checked
notes: Synthetic analogue of human PP; cited for changes at positions 29-31
B3: the binding result in assay [1] was “binds”.

B4: compound of SEQ ID NO:276 (4055746) (peptide)
peptide: B2 peptide with V6E, Q34P
modifications: ends and bridges not checked
notes: Synthetic analogue of human PP; cited for a change at position 6
B4: the binding result in assay [1] is reported as “binds”.

B5: compound of SEQ ID NO:281 (Lys 30, code 4055855) (peptide)
peptide: B2 peptide with M30K, Q34P
notes: Synthetic analogue of human PP with Lys at position 30
For the molecule B5, the binding result in assay [2] was “binds”.

B6: compound of SEQ ID NO:275 (code 4055745) (peptide)
peptide: B2 peptide with V6F, Q34P
modifications: ends and bridges not checked
notes: as for B4
B6: the binding result in assay [1] was “binds”.

B7: compound of SEQ ID NO:255 (code 4055708) (peptide)
peptide: B2 peptide with Q34P, Y36F
modifications: ends and bridges not checked
notes: as for B1
Consider B7, for which the binding result in assay [1] was “binds”.

B8: compound of SEQ ID NO:167 (code 7214) (peptide)
peptide: B2 peptide with D23A, M30K, Q34P
notes: Synthetic analogue of human PP with Ala at position 23 and Lys at position 30
Consider B8, for which the binding result in assay [1] is reported as “binds”.

B9: compound of SEQ ID NO:277 (Ala 23, code 4055747) (peptide)
peptide: B2 peptide with D23A, Q34P
notes: Synthetic analogue of human PP with Ala at position 23
Take B9: the binding result in assay [2] is listed as “binds”.

B10: compound of SEQ ID NO:260 (code 4055714) (peptide)
peptide: B2 peptide with M30V, Q34P
modifications: ends and bridges not checked
notes: as for B3
B10: the binding result in assay [1] was “binds”.

B11: compound of SEQ ID NO:259 (code 4055713) (peptide)
peptide: B2 peptide with M30I, Q34P
modifications: ends and bridges not checked
notes: as for B3
On to B11, for which the binding result in assay [1] was “binds”.

B12: compound of SEQ ID NO:224 (Lys 19, code 4055291) (peptide)
peptide: B2 peptide with Q19K, Q34P
notes: Synthetic analogue of human PP with Lys at position 19
As for B12, the binding result in assay [2] is “binds”.

B13: compound of SEQ ID NO:1090 (code 4059937) (peptide)
peptide: GAPLEPHAPGDNATPEEMAKYAAELRRYINKLTRPRY
modifications: ends and bridges not checked
notes: Synthetic analogue of human PP; cited for a change at position 7
With B13, the binding result in assay [1] is given as “binds”.

B14: compound of SEQ ID NO:702 (code 4058286) (peptide)
peptide: PAPLEAVYPGDNATPEQMARYYSELRRYINKLTRPRY
modifications: ends and bridges not checked
notes: Synthetic analogue of human PP; cited for Ala at position 5
In the case of B14, the binding result in assay [1] is “binds”.

B15: compound of SEQ ID NO:52 (code 6647) (peptide)
peptide: KAPLEPVYPGDNATPEQMAQYAADLRRYINMLTRPRY
notes: Synthetic analogue of human PP with an additional amino acid at position 0
Regarding B15, the binding result in assay [1] is “binds”.

B16: compound of SEQ ID NO:9 (Ala 0, code 6433) (peptide)
peptide: B15 peptide with K1A
notes: Synthetic analogue of human PP with an additional Ala at position 0
Consider B16, for which the binding result in assay [2] is given as “binds”.

B17: compound of SEQ ID NO:53 (code 6650) (peptide)
peptide: B15 peptide with K1H
notes: as for B15
Take B17: the binding result in assay [1] is on record as “binds”.

B18: compound of SEQ ID NO:168 (Ala 0, Ala 23 and Lys 30, code 7215) (peptide)
peptide: B15 peptide with K1A, D24A, M31K
notes: Synthetic analogue of human PP with additional Ala at position 0, Ala at 23 and Lys at 30
For the molecule B18, the binding result in assay [1] is reported as “binds”.

B19: compound of SEQ ID NO:56 (code 6653) (peptide)
peptide: B15 peptide with K1P
notes: as for B15
For B19, the binding result in assay [1] is reported as “binds”.

B20: compound of SEQ ID NO:348 (Ala 0, Lys19, Lys 30, code 4056385) (peptide)
peptide: B15 peptide with K1A, Q20K, M31K
notes: Synthetic analogue of human PP with additional Ala at position 0, Lys at 19 and Lys at 30
On to B20, for which, in assay [1], the binding result is “binds”.

B21: compound of SEQ ID NO:171 (code 7218) (peptide)
peptide: B15 peptide with K1A, M31K
modifications: ends and bridges not checked
notes: Synthetic analogue of human PP; introduced as additional Ala at position 0 and Lys at position 30, later in the same paragraph labelled 'Ala 0, Lys 19'
As to B21, the binding result in assay [1] was “binds”.
